This passage reports OD450, Maximum mean fluorescence intensity and Cell mean fluorescence density results from patent US20250297021A1.

Values joined by “and” are separate entries in the source; they are usually repeats but may differ in a detail not shown here. Equal entries are not always repeated.

Test [1] concerns the target human BCMA-His protein (human) (UniProt Q02223). Put plainly: competition ELISA vs hAPRIL-biotin on coated human BCMA; antibody 0.14 nM. (In general: ELISA stands for enzyme-linked immunosorbent assay.)
Test [2] has the same target. Put plainly: competition ELISA vs hAPRIL-biotin on coated human BCMA; antibody 0.41 nM.
Test [3] has the same target. In words: competition ELISA vs hAPRIL-biotin on coated human BCMA; antibody 1.23 nM.
For test [4] the target is unchanged. In words: competition ELISA vs hAPRIL-biotin on coated human BCMA; antibody 3.70 nM.
The target is the same in test [5]. In words: competition ELISA vs hAPRIL-biotin on coated human BCMA; antibody 11.11 nM.
Test [6] shares this target. In words: competition ELISA vs hAPRIL-biotin on coated human BCMA; antibody 33.33 nM.
The target is the same in test [7]. In words: competition ELISA vs hAPRIL-biotin on coated human BCMA; antibody 100.00 nM.
The target in test [8] is human BCMA on cells (human) (UniProt Q02223). Put plainly: FACS, H929 cells.
For test [9] the target is unchanged. Put plainly: FACS, U266 cells. (In general: A flow cytometer gives signals particle by particle.)
Test [10] shares this target. In words: FACS, H929 cells. This is another data set of the same source.
Test [11] has the same target. In words: FACS, U266 cells. The source holds these as a separate data set.
The target is the same in test [12]. In words: FACS, RPMI8226 cells.
The target is the same in test [13]. In words: FACS, RPMI8226 cells. This is another data set of the same source.
Test [14] shares this target. Put plainly: FACS, Flp-in CHO-human BCMA cells.
For test [15], the target named is monkey BCMA on cells (monkey). In words: FACS, Flp-in CHO-monkey BCMA cells.
In test [16] the target is human BCMA-His protein (human) (UniProt Q02223). Put plainly: ELISA, human BCMA-His coated; Ab 1 nM.
The target is the same in test [17]. Put plainly: ELISA, human BCMA-His coated; Ab 10 nM.
The target in test [18] is monkey BCMA-His protein (monkey). Put plainly: ELISA, monkey BCMA-His coated; Ab 1 nM.
Test [19] has as its target human BCMA-His protein (human) (UniProt Q02223). In words: ELISA, human BCMA-His coated; Ab 10 nM. The source holds these as a separate data set.
Test [20] addresses monkey BCMA-His protein (monkey). Put plainly: ELISA, monkey BCMA-His coated; Ab 1 nM. This is another data set of the same source.
Test [21] concerns the target human BCMA-His protein (human) (UniProt Q02223). Put plainly: ELISA, human BCMA-His coated; Ab 0.1 nM.
Test [22] has the same target. In words: ELISA, human BCMA-His coated; Ab 100 nM.
Test [23] addresses monkey BCMA-His protein (monkey). Put plainly: ELISA, monkey BCMA-His coated; Ab 10 nM.
For test [24] the target is unchanged. Put plainly: ELISA, monkey BCMA-His coated; Ab 10 nM. The source holds these as a separate data set.
For test [25], the target named is human BCMA-His protein (human) (UniProt Q02223). In words: ELISA, human BCMA-His coated; Ab 0.01 nM.
In test [26] the target is monkey BCMA-His protein (monkey). In words: ELISA, monkey BCMA-His coated; Ab 0.1 nM.
The target is the same in test [27]. Put plainly: ELISA, monkey BCMA-His coated; Ab 100 nM.
Test [28] has the same target. Put plainly: ELISA, monkey BCMA-His coated; Ab 0.1 nM. This is another data set of the same source.
Test [29] shares this target. Put plainly: ELISA, monkey BCMA-His coated; Ab 100 nM. This is another data set of the same source.
Test [30] addresses human BCMA-His protein (human) (UniProt Q02223). In words: ELISA, human BCMA-His coated; Ab 0.001 nM.
The target of test [31] is monkey BCMA-His protein (monkey). Put plainly: ELISA, monkey BCMA-His coated; Ab 0.01 nM.
Test [32] deals with human BCMA-His protein (human) (UniProt Q02223). In words: ELISA, human BCMA-His coated; Ab 0.0001 nM.
The target in test [33] is monkey BCMA-His protein (monkey). In words: ELISA, monkey BCMA-His coated; Ab 0.001 nM.
Test [34] has as its target human BCMA-His protein (human) (UniProt Q02223). Put plainly: ELISA, human BCMA-His coated; Ab 0.0001 nM. This is another data set of the same source.
In test [35] the target is monkey BCMA-His protein (monkey). In words: ELISA, monkey BCMA-His coated; Ab 0.001 nM. The source holds these as a separate data set.
For test [36] the target is unchanged. In words: ELISA, monkey BCMA-His coated; Ab 0.0001 nM.
Test [37] has the same target. In words: ELISA, monkey BCMA-His coated; Ab 0.0001 nM. The source holds these as a separate data set.
For test [38], the target named is human BCMA on cells (human) (UniProt Q02223). In words: cell ELISA, Flp-inCHO-human BCMA cells; Ab 0.01 nM.
For test [39] the target is unchanged. Put plainly: cell ELISA, Flp-inCHO-human BCMA cells; Ab 0.02 nM.
For test [40] the target is unchanged. Put plainly: cell ELISA, Flp-inCHO-human BCMA cells; Ab 0.05 nM.
Test [41] has the same target. In words: cell ELISA, Flp-inCHO-human BCMA cells; Ab 0.14 nM.
Test [42] has the same target. In words: cell ELISA, Flp-inCHO-human BCMA cells; Ab 0.41 nM.
Test [43] shares this target. Put plainly: cell ELISA, Flp-inCHO-human BCMA cells; Ab 1.23 nM.
The target is the same in test [44]. Put plainly: cell ELISA, Flp-inCHO-human BCMA cells; Ab 3.70 nM.
The target is the same in test [45]. In words: cell ELISA, Flp-inCHO-human BCMA cells; Ab 0.002 nM.
Test [46] shares this target. Put plainly: cell ELISA, Flp-inCHO-human BCMA cells; Ab 11.11 nM.
For test [47] the target is unchanged. In words: cell ELISA, Flp-inCHO-human BCMA cells; Ab 33.33 nM.
Test [48] has the same target. In words: cell ELISA, Flp-inCHO-human BCMA cells; Ab 100.00 nM.

Chain of monkey BCMA-His protein (monkey) (A0A2K5 entry or part of it limits assumed): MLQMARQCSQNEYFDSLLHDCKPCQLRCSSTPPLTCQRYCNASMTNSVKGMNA
Chain of human BCMA-His protein (human) (Q02223 1-54 limits assumed): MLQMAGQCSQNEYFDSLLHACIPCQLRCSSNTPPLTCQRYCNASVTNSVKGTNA
Chain of human BCMA on cells (human) (Q02223 whole entry): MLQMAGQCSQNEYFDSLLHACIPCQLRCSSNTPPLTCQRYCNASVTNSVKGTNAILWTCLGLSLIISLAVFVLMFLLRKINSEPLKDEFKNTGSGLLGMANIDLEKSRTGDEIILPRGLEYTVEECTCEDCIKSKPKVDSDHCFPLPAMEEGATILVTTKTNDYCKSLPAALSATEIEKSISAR

As to anti-hel-hIgG1 (antibody), the OD450 is 1.43 OD450 and 1.28 OD450 and 1.63 OD450 in test [1]; 1.41 OD450 and 1.31 OD450 and 1.48 OD450 in test [2]; 1.43 OD450 and 1.27 OD450 and 1.53 OD450 in test [3]; 1.38 OD450 and 1.29 OD450 and 1.53 OD450 in [4]; 1.39 OD450 and 1.24 OD450 and 1.51 OD450 in test [5]; 1.41 OD450 and 1.31 OD450 and 1.46 OD450 in [6]. In addition, in test [7], the OD450 was 1.54 OD450 and 1.45 OD450 and 1.57 OD450.
In the case of “anti-hel-hIgG1 (negative control antibody against hen egg lysozyme)”, the Maximum mean fluorescence intensity in [8] is 110; in test [9] it was 103; in test [10], 94 and 69; in [11] it was 86 and 101; in test [12] it was 118; in test [13], 81 and 107. In addition, the Cell mean fluorescence density was 54.6 in test [14] and 49 in test [15]. Also, the OD450 in test [16] was 0.05; in [17] it was 0.07; in [18] it was 0.05; in [19] it was 0.27 and 0.12; in test [20] it was 0.06 and 0.17; in test [21] it was 0.05. In addition, the OD450 was 0.12 in [22]; 0.06 in [23]; 0.08 in [24]; 0.05 in test [25]; 0.05 in test [26]; 0.1 in [27]. Besides, the OD450 in [28] is 0.08 and 0.19; in test [29], 0.08 and 0.18; in test [30], 0.05; in test [31], 0.04; in [32], 0.05; in test [33] it was 0.05. Besides, the OD450 is 0.06 and 0.09 in [34]; 0.06 and 0.17 in test [35]; 0.05 in test [36]; 0.06 and 0.08 in test [37]; 0.08 and 0.09 in test [38]; 0.08 and 0.1 in test [39]. Also, the OD450 in test [40] was 0.08 and 0.09; in test [41] it was 0.08 and 0.09; in [42] it was 0.08 and 0.09; in test [43] it was 0.08 and 0.09; in test [44] it was 0.08 and 0.09; in test [45], 0.08 and 0.09. Further, the OD450 in [46] was 0.08 and 0.1; in test [47] it was 0.09 and 0.14; in test [48], 0.11 and 0.28.
